Earlier results on one substance are cited in US20180071407A9, “SYSTEMS AND METHODS FOR INTRA-TARGET MICRODOSING (ITM)” (priority 2013, published 2018).

The conditions of the series: known value used to choose sampling time points; cited from earlier work.

Take insulin: the half-life of insulin was 4 to 6 min.
